Experimental findings from patent US20130303726 are described below.

The data set has as its system MBP-SpC33Leu fusion protein.

enterokinase: the “cleavage of the fusion protein, MALDI-MS” value was “No detectable amounts of MBP-linker-SP-C33(Leu) were observed, suggesting that the applied proteolytic reaction conditions result in a quantitative process”.
